Our source for the helical content, X-gal and ONPG values is patent US5834184A, “In vivo selection of RNA-binding peptides” (priority 1995, dated 1998).

Data set [1] can be described thus: Circular dichroism, helical content of synthetic peptides. It is filed as physicochemical. To be noted: estimated from ellipticity at 222 nm; 10 mM potassium phosphate pH 7.5, 100 mM KF, 4° C. (FIG. 4B). On the procedure: FIG. 4B: Circular dichroism spectra of Rev34-40 (.box-solid.), Rev34-47 (S34) (.smallcircle.), Rev-like peptide clone 24 (.quadrature.), clone 57 peptide (.circle-solid.), and clone 41 peptide (.diamond.).
Circular dichroism was used to assess whether the selected peptides adopted α-helical conformations. Circular dichroism spectra were measured using an Aviv model 62DS spectropolarimeter. Samples were prepared in 10 mM potassium phosphate buffer, pH 7.5 and 100 mM KF. Spectra were recorded using a 1 cm pathlength cuvette at 4° C. and signal was averaged for 5 sec at each wavelength. Scans were repeated five times and averaged.

Data set [2] concerns Nut reporter (λ Nut site, Box B). As to the kind of experiment: Antitermination assay (β-galactosidase reporter in E. coli), Nut reporter. Type of data set: cell-based, phage λ. The text has this: (§1) Synthetic oligonucleotide cassettes encoding HIV Rev (ma[…]-aaaan) (SEQ ID NO: 26), BIV Tat (mg[…]gggn) (SEQ ID NO: 27), and HIV Tat ([…]) (SEQ ID NO: 28) peptides were cloned into the unique BsmI and NcoI sites of pBRptacN^* (Franklin, J. Mol Biol 231, 343 (1993)), creating fusion proteins at amino acid 20 of the λ N protein. The sequence encoding the fusion protein was linked to a tac promoter.
(§2) A second pACYC-derived vector was constructed encoding a tac promoter linked to the phage λ termination site Nut and a β-galactosidase structural gene. […]
(§3) Plasmids were transformed into E. coli strain N567 (Franklin & Doelling, J. Bacteriol. 171, 2513 (1989)) and bacteria were grown on LB plates or in tryptone broth containing 50 mg/l ampicillin and/or 15 mg/l chloramphenicol. In the β-galactosidase colony color assay, the number of +s represents visual estimation of blue intensity after growing colonies on plates containing 0.08 mg/ml X-gal and 0.024 mg/ml IPTG (to induce the tac promoters) for ~48 hr at 34° C. β-galactosidase activity was also measured in permeabilized cells using an ONPG colorimetric assay (Sambrook et al. Molecular Cloning (Cold Spring Harbor Laboratory Press, Cold Spring Harbor, 1989)). […]

Data set [3] deals with BIV TAR. The experiment in a line: Antitermination assay (β-galactosidase reporter in E. coli), BIV TAR reporter. Details: key to X-gal: +++++, 200 units β-galactosidase/1 OD600 unit cells; ++++, 100-200 units; +++, 10-100 units; ++, 2-10 units; +, 1-10 units; -, background. It is filed as cell-based. To be noted: BIV TAR reporter (Table 1).
From the text: as §1, §2, §3

Data set [4] deals with Nut^- (a Nut site deletion) reporter. The experiment in a line: Antitermination assay (β-galactosidase reporter in E. coli), Nut^- reporter. More on the design: key to X-gal: +++++, 200 units β-galactosidase/1 OD600 unit cells; ++++, 100-200 units; +++, 10-100 units; ++, 2-10 units; +, 1-10 units; -, background. It is filed as cell-based, phage λ.
From the text: as §1, §2, §3

The subject of data set [5] is HIV TAR. As to the kind of experiment: Antitermination assay (β-galactosidase reporter in E. coli), HIV TAR reporter. Type of data set: cell-based. Details: key to X-gal: +++++, 200 units β-galactosidase/1 OD600 unit cells; ++++, 100-200 units; +++, 10-100 units; ++, 2-10 units; +, 1-10 units; -, background.
From the text: as §1, §2, §3

For data set [6], the system named is HIV RRE. The experiment in a line: Antitermination assay (β-galactosidase reporter in E. coli), HIV RRE reporter. Type of data set: cell-based. More on the design: key to X-gal: +++++, 200 units β-galactosidase/1 OD600 unit cells; ++++, 100-200 units; +++, 10-100 units; ++, 2-10 units; +, 1-10 units; -, background. The following applies: HIV RRE reporter (Table 1).
From the text: as §1, §2, §3

Setting [7] is: permeabilized cells, 1 hr IPTG induction.
[8] abbreviates: colony colour on X-gal/IPTG plates.

As for “14 amino acid wild-type Rev peptide: synthetic 14 amino acid Rev peptide, succinyl capped, four alanines and amide at the C-terminus”, the helical content in data set [1] is given as 11%.

B1: N: wild-type phage λ N antiterminator protein (protein, UniProt P03045 1-107, looked up)
Antitermination protein N: MDAQTRRRERRAEKQAQWKAANPLLVGVSAKPVNRPILSLNRKPKSRVESALNPIDLTVLAEYHKQIESNLQRIERKNQRTWYSKPGERGITCSGRQKIKGKSIPLI
For the molecule B1, the X-gal result is on record as “+++++ (+++++, 200 units β-galactosidase/1 OD600 unit cells)” in data set [2] (colony colour on X-gal/IPTG plates ~48 hr at 34° C.); “-” in data set [3] (setting [8]); “-” in data set [4] (colony colour on X-gal/IPTG plates ~48 hr at 34° C., E. coli N567); “-” in data set [5] (setting [8]); “-” in data set [6] (setting [8]). Also, the ONPG in data set [2] (setting [7]) was 1020 units β-galactosidase/1 OD600; in data set [3] (permeabilized cells), 2.9 units β-galactosidase/1 OD600; in data set [4] (setting [7]), 1.9 units β-galactosidase/1 OD600; in data set [5] (permeabilized cells), 2.4 units β-galactosidase/1 OD600; in data set [6] (permeabilized cells), 2.5 units β-galactosidase/1 OD600.
